From patent publication US20190177417A1 (BIOATLA, published 2019)
Numbering of substitutions follows the chain as printed. In names and notes the source's numbering stands.

T1: Axl protein (human, UniProt P30530 26-451)
T1 construct: extracellular domain; also called human Axl; hAxl
T1 sequence (looked up): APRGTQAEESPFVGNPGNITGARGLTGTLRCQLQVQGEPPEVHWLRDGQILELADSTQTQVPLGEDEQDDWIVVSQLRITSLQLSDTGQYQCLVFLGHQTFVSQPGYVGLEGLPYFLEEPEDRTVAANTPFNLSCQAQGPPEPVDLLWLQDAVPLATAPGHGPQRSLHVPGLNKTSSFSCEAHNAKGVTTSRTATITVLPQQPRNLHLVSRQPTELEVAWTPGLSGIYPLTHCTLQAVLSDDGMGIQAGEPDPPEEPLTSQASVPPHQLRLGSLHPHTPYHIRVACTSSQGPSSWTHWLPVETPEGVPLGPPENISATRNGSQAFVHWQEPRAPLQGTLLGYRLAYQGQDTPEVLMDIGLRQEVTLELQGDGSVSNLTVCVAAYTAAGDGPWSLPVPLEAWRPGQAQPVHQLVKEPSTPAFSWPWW

B1: LC-A032L (antibody, V domains shown)
VH: EVQLVQSGAEVKKPGATVKISCKVSGYSFTGHTMNWIRQPPGKGLEWIGLIKPSNGGTSYNQKFKGRVTISADKSISTAYLQWSSLKASDTAMYYCAHGHYESYFAMDYWGQGTLVTVSS
VL: DIQMTQSPSSLSASVGDRVTITCKASQDVSSLVAWYQQKPGQAPRLLIYWASTRHTGVPSRFSGSGSGTEFTLTISSLQPDDFATYYCQEHFSTPLTFGQGTKVEIK
B2: LC-F092C (antibody, V domains shown)
VH: B1 VH
VL: B1 VL with L32A, F92C
B3: LC-A032M (antibody, V domains shown)
VH: B1 VH
VL: B1 VL with L32M
B4: LC-F092D (antibody, V domains shown)
VH: B1 VH
VL: B1 VL with L32A, F92D
B5: LC-A034D (antibody, V domains shown)
VH: B1 VH
VL: B1 VL with L32A, A34D
B6: LC-F092E (antibody, V domains shown)
VH: B1 VH
VL: B1 VL with L32A, F92E
B7: LC-A034N (antibody, V domains shown)
VH: B1 VH
VL: B1 VL with L32A, A34N
B8: LC-F092G (antibody, V domains shown)
VH: B1 VH
VL: B1 VL with L32A, F92G
B9: LC-A034Q (antibody, V domains shown)
VH: B1 VH
VL: B1 VL with L32A, A34Q
B10: LC-F092N (antibody, V domains shown)
VH: B1 VH
VL: B1 VL with L32A, F92N
B11: LC-W050F (antibody, V domains shown)
VH: B1 VH
VL: B1 VL with L32A, W50F
B12: LC-F092S (antibody, V domains shown)
VH: B1 VH
VL: B1 VL with L32A, F92S
B13: LC-A051I (antibody, V domains shown)
VH: B1 VH
VL: B1 VL with L32A, A51I
B14: LC-T094C (antibody, V domains shown)
VH: B1 VH
VL: B1 VL with L32A, T94C
B15: LC-A051N (antibody, V domains shown)
VH: B1 VH
VL: B1 VL with L32A, A51N
B16: LC-P095A (antibody, V domains shown)
VH: B1 VH
VL: B1 VL with L32A, P95A
B17: LC-A051P (antibody, V domains shown)
VH: B1 VH
VL: B1 VL with L32A, A51P
B18: LC-P095C (antibody, V domains shown)
VH: B1 VH
VL: B1 VL with L32A, P95C
B19: LC-H091C (antibody, V domains shown)
VH: B1 VH
VL: B1 VL with L32A, H91C
B20: LC-P095D (antibody, V domains shown)
VH: B1 VH
VL: B1 VL with L32A, P95D
B21: LC-H091F (antibody, V domains shown)
VH: B1 VH
VL: B1 VL with L32A, H91F
B22: LC-P095E (antibody, V domains shown)
VH: B1 VH
VL: B1 VL with L32A, P95E
B23: LC-H091I (antibody, V domains shown)
VH: B1 VH
VL: B1 VL with L32A, H91I
B24: LC-P095H (antibody, V domains shown)
VH: B1 VH
VL: B1 VL with L32A, P95H
B25: LC-H091L (antibody, V domains shown)
VH: B1 VH
VL: B1 VL with L32A, H91L
B26: LC-P095K (antibody, V domains shown)
VH: B1 VH
VL: B1 VL with L32A, P95K
B27: LC-H091Q (antibody, V domains shown)
VH: B1 VH
VL: B1 VL with L32A, H91Q
B28: LC-P095S (antibody, V domains shown)
VH: B1 VH
VL: B1 VL with L32A, P95S
B29: LC-L096G (antibody, V domains shown)
VH: B1 VH
VL: B1 VL with L32A, L96G
B30: LC-P095T (antibody, V domains shown)
VH: B1 VH
VL: B1 VL with L32A, P95T
B31: LC-L096R (antibody, V domains shown)
VH: B1 VH
VL: B1 VL with L32A, L96R
B32: LC-P095V (antibody, V domains shown)
VH: B1 VH
VL: B1 VL with L32A, P95V
B33: LC-T097I (antibody, V domains shown)
VH: B1 VH
VL: B1 VL with L32A, T97I
B34: LC-P095W (antibody, V domains shown)
VH: B1 VH
VL: B1 VL with L32A, P95W

Columns and labels:
Axl protein [1] = target: T1, Axl protein; assay: ELISA, 1:3 dilution, pH 6.0 over pH 7.4
Axl protein [2] = target: T1, Axl protein; assay: ELISA, 1:9 dilution, pH 6.0 over pH 7.4

Row | Binder | Affinity ELISA CPE mutant ratio (1:3, pH 6.0/7.4) (Axl protein [1]) | Affinity ELISA CPE mutant ratio (1:9, pH 6.0/7.4) (Axl protein [2])
1 | B1 | 1.98 ratio | 2.27 ratio
2 | B2 | 3.86 ratio | 4.58 ratio
3 | B3 | 4.76 ratio | 2.92 ratio
4 | B4 | 2.97 ratio | 2.94 ratio
5 | B5 | 3 ratio | 2.6 ratio
6 | B6 | 1.76 ratio | 2 ratio
7 | B7 | 2.63 ratio | 2.4 ratio
8 | B8 | 3.69 ratio | 4.76 ratio
9 | B9 | 2 ratio | 1.41 ratio
10 | B10 | 1.93 ratio | 2 ratio
11 | B11 | 2.25 ratio | 3.5 ratio
12 | B12 | 3.18 ratio | 2.94 ratio
13 | B13 | 2.24 ratio | 2.14 ratio
14 | B14 | 1.42 ratio | 1.77 ratio
15 | B15 | 1.41 ratio | 2.2 ratio
16 | B16 | 2.52 ratio | 2.99 ratio
17 | B17 | 1.92 ratio | 1.57 ratio

Row | Binder | Affinity ELISA CPE mutant ratio (1:3, pH 6.0/7.4) (Axl protein [1]) | Affinity ELISA CPE mutant ratio (1:9, pH 6.0/7.4) (Axl protein [2])
18 | B18 | 2.35 ratio | 2.63 ratio
19 | B19 | 4 ratio | 3.02 ratio
20 | B20 | 3.95 ratio | 2.89 ratio
21 | B21 | 1.6 ratio | 2.12 ratio
22 | B22 | 7.12 ratio | 7.51 ratio
23 | B23 | 1.55 ratio | 2.15 ratio
24 | B24 | 2.5 ratio | 2.75 ratio
25 | B25 | 2.8 ratio | 2.08 ratio
26 | B26 | 3.84 ratio | 3.47 ratio
27 | B27 | 1.77 ratio | 2.01 ratio
28 | B28 | 2.84 ratio | 3.51 ratio
29 | B29 | 2.17 ratio | 2.44 ratio
30 | B30 | 2.5 ratio | 2.09 ratio
31 | B31 | 2.88 ratio | 2.18 ratio
32 | B32 | 1.87 ratio | 2.13 ratio
33 | B33 | 3.09 ratio | 4.05 ratio
34 | B34 | 2.15 ratio | 2.26 ratio
